The data set in a line: yeast display, Sf9 membrane polyspecificity reagent, FACS + sequencing; frameworks hold sequencing errors. Summed up: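 After 36–48 hours of galactose induction, yeast (Saccharomyces cerevisiae BJ5465) displaying a synthetic nanobody library were stained at 4 °C for 1 hour with 10% biotinylated, detergent-solubilized Sf9 membrane reagent. Streptavidin microbeads enriched the stained cells before FACS sorting into low and high (top ~1%) gates on anti-HA and streptavidin fluorescence. Each clone's polyreactivity label reflects its gate of origin.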
Consider “QVQLVESGGGLVQAGGSLRLSCAASGRIFYRYAMGWYRQAPGKERELVASITSGGSTTYYADSVKGRFTISRDNAKNTVYLQMNSLKPEDTAVYYCAARPRYRKEYDYWGQGTQVTVSS”, for which the “polyreactivity (PSR sort gate)” value is “high polyreactivity”.
The value for “QVQLVESGGGLVQAGGSLRLSCAASGRIFYRYAMGWYRQAPGKERELVATITSGGRTKYADSVTGRFTIARDNAKNTVYLQMNSLKPEDTAVYYCNAYVYSGYSIRDYWGQGTQVTVSS” was “high polyreactivity”; that for “QVQLVESGGGLVQAGGSLRLSCAASGRIFYRYARGWYRQAPGKERELVAAITRGGRTNYADSVKGRFTISRDNAQNTVYLQMNSLKPEDTAVYYCRPLWYGFDYWGQGTQVTVSS” was “high polyreactivity”.
Regarding “QVQLVESGGGLVQAGGSLRLSCAASGRIFYRYTMGWYRQAPGKERELVAVIRSGGRTYYADSVKGRFSISRDNAKNTLSLQMNSLKPEDTSVYYCATLVRVLTLRSDLNLYGYWGQGTQVTVSS”, the “polyreactivity (PSR sort gate)” value is on record as “high polyreactivity”.
The value for “QVQLVESGGGLVQAGGSLRLSCAASGRIFYRYVMGWYRQAPGKERELVAAITSSGGSTYYADSVKGRFTISRDNAKHTVYLQMISLQPEDTAVYYCAADRYTRYRYNYWGQGTQVTVSS” was “high polyreactivity”; that for “QVQLVESGGGLVQAGGSLRLSCAASGRIFYSNAMGWYRPAPGKERELVAGITISGGSTYYADSVKGRFTISRDYAKNTVSLQMNSLKPEDTAVYYCNARYLRRGDYGGQGTQVTVSS” was “low polyreactivity”; that for “QVQLVESGGGLVQAGGSLRLSCAASGRIFYSNAMGWYRQAPGKERELVAAITGSGGRTHYADSVKGRFTISRDNAKNTVYLQMNSLKPEDTAVYYCAKDGYFPEFDYWGQGTKVTVSS” was “high polyreactivity”.
The value for “QVQLVESGGGLVQAGGSLRLSCAASGRIFYSNAMGWYRQAPGKERELVATISRGGSTYADSVKGRFTISRDNAKNTVYLQMNSLKPEDTAVYYCAAGLQGYPRKFNYWGQGTQVTVSS” was “low polyreactivity”.
Turning to “QVQLVESGGGLVQAGGSLRLSCAASGRIFYSNAMGWYRQAPGKERELVATITYYADSVKGRFTISRDNAKNTVYLQMNSLKPEDTSVYYCAAVYLYYSRSDLYDYWGQGTQVTVSS”, the “polyreactivity (PSR sort gate)” value is reported as “low polyreactivity”.
As to “QVQLVESGGGLVQAGGSLRLSCAASGRIFYSNDLGWYRQAPGKERELVAAITSSGASTYYADSVKGRFTISRDNEKNTVYLQMNSLKPEDTAVYYCNVDIGVYAYESDYWGQGTQVTVSS”, the “polyreactivity (PSR sort gate)” value is on record as “low polyreactivity”.
As for “QVQLVESGGGLVQAGGSLRLSCAASGRIFYSYAMGWYRQAPGKEREFVAAIRWSGGRTYYADSVKGRFTISRDNAKNTVYLQMNSLKPEDTAVYYCAAELYGNNFWDGTTGYDYWGQGTEVTVSS”, the entry is “low polyreactivity”; as for “QVQLVESGGGLVQAGGSLRLSCAASGRIFYSYAMGWYRQAPGKERELVAAISRSGGRTYYADSVKGRFTISRDNAKNTVYLQMNSLKPEDTAVYYCNAYRPRFSTRVDYWGQGTQVTVSS”, “high polyreactivity”.
As for “QVQLVESGGGLVQAGGSLRLSCAASGRIFYTKTMGWYRQAPGNEWELVAAIRSGTRTDYADSVKGRFTISRDNAKKTVYLQMNSLKPYDTAVSYCNKAAGVTGRYYYWGQGTQVTVSS”, the entry is “low polyreactivity”; as for “QVQLVESGGGLVQAGGSLRLSCAASGRIFYTNAMGWYRQAPGKERELVATISLRGGSTYYADSVKGRFTISRDNAKNTVYLQLNSLKPEDTAVYDCAARFWSVYSGNPTYPKYYWGQGTQVTVSS”, “high polyreactivity”; as for “QVQLVESGGGLVQAGGSLRLSCAASGRIFYTNGMGWYRQAPGKERELVAAITYSGGNTFYADSVKGRFTISRDNSKNTVYLQMNSLKPEDTAVYYCAATFTYLGYWYDYRGQGTQVTVSS”, “low polyreactivity”.
The value for “QVQLVESGGGLVQAGGSLRLSCAASGRIFYTYAMGRYRQAPGKERELVAVISSGGSTNYADSVKGRFTISRDTAKNNVYLQMNSLKPEDTAVYYCNADTGAADYFDFDYWGQGTQVTVSS” was “low polyreactivity”.

The values above are taken from the nanobody polyreactivity screen of Harvey et al. (2022).
